These results are taken from US20230279130A1.

In assay [1] the target is full length human CCR8 (hCCR8) (human) (UniProt P51685). Description: flow cytometry, CD4+Foxp3+ gated cells of human PBMC stimulated with IL-2 (200 U/ml) for 2 days, anti-human IgG Fc against Foxp3. Background: Flow cytometry measures light scatter and fluorescence of single cells or particles in a stream.
Assay [2] has the same target. Description: flow cytometry, CD4+Foxp3+ gated cells of resting human PBMC, anti-human IgG Fc against Foxp3.
Assay [3] shares this target. Description: flow cytometry, CD4+Foxp3+ gated cells of OKT-3 stimulated human PBMC, anti-human IgG APC against Foxp3 PE.

As to Anti RSV (antibody), the percent of CD4+Foxp3+ cells in the gate 'Foxp3 ahigG Subset' turned out to be 0.36% in assay [1] and 0.11% in assay [2]. The substance “anti-DNP (dinitrophenyl) control antibody” came in with a percent of CD4+Foxp3+ cells stained (upper right quadrant) in assay [3] of 6.23%.
